The target in experiment [1] is T1, PD-L1 on cells (NCI-H441 cells; aAPC PD-L1/CHO-K1 cells, Promega) (human, UniProt Q9NZQ7 19-290).
T1 construct: whole, on cells; also called human PD-L1-expressing CHO-K1 cells; H441 cells endogenously expressing PD-L1
Put plainly: flow cytometry, % positive cells, NCI-H441 cells (endogenous PD-L1). How it is done:
(§1) Lung cancer cell line (NCI-H441 (ATCC), CHO-K1 recombinant cell line overexpressing PD-L1 aAPC/CHO-K1 (Promega J1252)) and a negative cell line (CHO-K1, ATCC) were used to assess AFFIMER® agent binding capacity to PD-L1 by flow cytometry.
(§2) Briefly, 50 000 cells were added to each well of a 96-well microplate. After this step and each subsequent step, cells were washed twice with PBS+2 mM EDTA using 350g centrifugation for 3 minutes at 4° C. All steps were performed at 4° C. using assay buffer comprising 5% FBS, 2 mM EDTA and 0.05% sodium azide in PBS unless otherwise stated. Independent AFFIMER® agent dilutions were prepared in duplicate and added to the plates. […] Fixation was performed for 10 minutes at 4° C. with Fixation Buffer (Bio-techne FC004). Cells were resuspended in 100 ul assay buffer prior the acquisition of the data. 5000 events were collected by Flow cytometry (Millipore Guava 12HT). The results were gated on live cells and singlets (SSC-H vs SSC-A). The percentage of cells expressing PD-L1 bound by the AFFIMER® agent (positive cells) was determined by using as negative control (background) where the wells were stained with the AF488 conjugated secondary antibody only without AFFIMER® agent. The average of the duplicate wells was used to calculate EC₅₀ using a four-parameter non-linear regression curve fit using Graphpad Prism software. […]
(A flow cytometer gives signals particle by particle.)

For experiment [2], the target named is T2, human PD-L1-Fc (R&D Systems) (human, UniProt Q9NZQ7 19-239).
T2 construct: Bought reagent; also called huPD-L1-Fc; huPD-L1; not shown: Fc part of the bought fusion
T2 sequence (Q9NZQ7 19-239 limits assumed): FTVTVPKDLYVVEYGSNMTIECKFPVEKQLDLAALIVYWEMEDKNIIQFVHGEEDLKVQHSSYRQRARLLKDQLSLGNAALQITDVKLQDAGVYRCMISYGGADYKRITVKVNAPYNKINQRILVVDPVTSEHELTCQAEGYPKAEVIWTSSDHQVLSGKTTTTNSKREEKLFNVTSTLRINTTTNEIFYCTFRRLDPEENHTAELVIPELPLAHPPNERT
Put plainly: human PD-L1-Fc/HSA bridging ELISA: huPD-L1-Fc coated, AFFIMER titrated with 10 µM HSA, detection with HRP-conjugated anti-HSA antibody (the signal needs PD-L1 and HSA bound at once). As to the method: After saturation with 5% casein/PBS buffer, the plates were washed and a dilution of AFFIMER® polypeptides or controls was incubated with HSA at a final concentration of 10 μM for 90 minutes. Plates were then washed, and a […] polyclonal antibody, anti-HSA (HRP-conjugated) (Abcam), was added for 90 minutes. After a last washing step, TMB was added for the development of the experiment and the plates were read at 450 nm. The EC₅₀ was then calculated using the interpolated non-linear four-parameters standard curve (FIG. 10).

For experiment [3], the target named is T3, murine serum albumin (MSA) (murine, UniProt P07724 25-608).
T3 construct: Bought reagent
Put plainly: SPR, Biacore, MSA amine-coupled on CM5; E. coli-produced format.

Experiment [4] concerns the target T4, human serum albumin (HSA) (human, UniProt P02768 25-609).
T4 construct: The assays used bought HSA (Sigma #A37812 in the SPR work); also called HuSA
Put plainly: SPR (Biacore): immobilized ligand HSA (Sigma # A3782), AFFIMER as analyte, pH 7.0 by the legend. How it is done:
(§3) For the HSA binding kinetic analysis, HSA (Sigma #A37812) was immobilized on a CM5 chip surface using amine coupling in 10 mM sodium acetate (pH 5.0) (Cytvia). […] The chip surface was regenerated with 3 mM NaOH for 20 seconds at a flow rate of 20 μl/min. The kinetic data was blank subtracted and fit to a 1:1 Langmuir binding model (BIAcore evaluation software; Cytiva).
On the technique in general: SPR reads the build-up and loss of mass on a sensor chip optically.

Experiment [5] has as its target T4, human serum albumin (HSA). Put plainly: SPR, Biacore, HSA amine-coupled on CM5; E. coli-produced format. As to the method: as §3
The target of experiment [6] is T1, PD-L1 on cells (NCI-H441 cells; aAPC …). Put plainly: cell-based or functional assay.
The target is the same in experiment [7]. Put plainly: flow cytometry, % positive cells, aAPC PD-L1/CHO-K1 cells (overexpressing PD-L1). How it is done: as §1, §2
Experiment [8] concerns the target T2, human PD-L1-Fc (R&D Systems). Nature of the experiment: PD-L1/PD-1 competition ELISA (binding inhibition %): human PD-1-Fc coated, AFFIMER preincubated with huPD-L1-Fc at its EC80, bound PD-L1 detected; blocked ligand: human PD-1-Fc. The table column is headed 'EC50 (nM)'; the text calls the values IC50. How it is done:
Plates were washed two times with washing buffer (PBS, Tween 20 0.1%) with a plate washer and saturated with Casein 5% (Sigma) in PBS for 90 minutes at room temperature (25±1° C.). […] Plates were washed 3 times as described previously. […] Plates were washed 3 times as described previously and Streptavidin-HRP was added, and the plates were incubated for 30 minutes at room temperature (25±1° C.). Plates were washed a last time and the substrate (TMB; Pierce Thermo-Scientific) was added to the plate. After 10 minutes, the reaction was stopped using an acidic solution and the plates were read at absorbance 450-630 nm. The IC₅₀ was then calculated using the interpolated non-linear four-parameters standard curve.
On the technique in general: ELISA stands for enzyme-linked immunosorbent assay.

Experiment [9] has the same target. Nature of the experiment: human PD-L1-Fc binding ELISA: huPD-L1-Fc coated, anti-cystatin A detection.
Experiment [10] concerns the target T4, human serum albumin (HSA). Nature of the experiment: SPR (Biacore 8K): HSA amine-coupled on a CM5 chip, AFFIMER as analyte, pH 7.4, 1:1 Langmuir fit. How it is done: as §3
Experiment [11] has as its target T4, human serum albumin (HSA). Nature of the experiment: SPR (Biacore 8K): HSA amine-coupled on a CM5 chip, AFFIMER as analyte, pH 6.0, 1:1 Langmuir fit. How it is done:
as §3

T1 sequence (Q9NZQ7 19-290): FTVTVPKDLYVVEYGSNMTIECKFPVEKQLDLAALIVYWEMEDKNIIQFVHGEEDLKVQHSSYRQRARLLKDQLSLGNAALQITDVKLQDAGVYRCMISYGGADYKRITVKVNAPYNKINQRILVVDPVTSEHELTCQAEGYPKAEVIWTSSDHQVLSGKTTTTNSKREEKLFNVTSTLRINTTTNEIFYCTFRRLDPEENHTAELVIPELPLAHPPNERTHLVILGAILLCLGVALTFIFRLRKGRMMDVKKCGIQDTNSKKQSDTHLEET
T4 sequence (P02768 25-609): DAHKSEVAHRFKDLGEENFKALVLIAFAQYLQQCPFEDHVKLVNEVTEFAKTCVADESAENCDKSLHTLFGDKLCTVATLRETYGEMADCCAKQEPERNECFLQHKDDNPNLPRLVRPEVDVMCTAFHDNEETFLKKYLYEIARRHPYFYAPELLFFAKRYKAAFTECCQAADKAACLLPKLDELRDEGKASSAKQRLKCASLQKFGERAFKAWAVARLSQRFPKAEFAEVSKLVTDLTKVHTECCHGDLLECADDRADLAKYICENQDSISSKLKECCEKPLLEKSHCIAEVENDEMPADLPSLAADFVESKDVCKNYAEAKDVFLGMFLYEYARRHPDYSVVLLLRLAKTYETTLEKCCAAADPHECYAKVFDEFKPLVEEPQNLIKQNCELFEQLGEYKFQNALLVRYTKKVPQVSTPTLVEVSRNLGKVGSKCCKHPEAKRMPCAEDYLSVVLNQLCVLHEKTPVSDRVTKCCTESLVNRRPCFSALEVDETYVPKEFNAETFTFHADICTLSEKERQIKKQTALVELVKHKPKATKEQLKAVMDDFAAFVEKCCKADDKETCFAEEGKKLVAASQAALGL

B1: Clone 80 XT35 (anti-PD-L1 type III AFFIMER® XT in-line fusion dimer XT) (designed binder)
chain: MIPGGLSEAKPATPEIQEIVDKVKPQLEEKTGETYGKLEAVQYKTQVVRRKHFPQWPGTNYYIKVRAGDNKYMHLKVFKSLDLQPREVFQEDLVLTGYQVDKNKDDELTGFAEAAAKEAAAKEAAAKEAAAKEAAAKEAAAKMIPGGLSEAKPATPEIQEIVDKVKPQLEEKTGETYGKLEAVQYKTQVVRRKHFPQWPGTNYYIKVRAGDNKYMHLKVFKSLDLQPREVFQEDLVLTGYQVDKNKDDELTGFAEAAAKEAAAKEAAAKEAAAKEAAAKEAAAKMIPRGLSEAKPATPEIQEIVDKVKPQLEEKTNETYGKLEAVQYKTQVLANFFQRRWPGSTNYYIKVRAGDNKYMHLKVFNGPWKFRNTDRGADRVLTGYQVDKNKDDELTGFHHHHHH
notes: Made in E. coli; Two Clone 80 units are fused to one HSA-41; also called XT35_1; ILF trimer format
Regarding B1, the EC50 (in general, the concentration that produces a half-maximal response) in experiment [1] is 0.41 nM; in [2] it was 0.57 nM; in [7], 0.036 nM; in experiment [9], 0.01 nM. Moreover, the Kd (as a rule, the constant that tells how readily two partners part at equilibrium) was determined as 269 nM in [3]; 9.09 nM in [4]; 9 nM in experiment [5]; 6.13 nM in experiment [10]; 4.44 nM in experiment [11]. Also, the results for the koff in experiment [4], in experiment [10] and in [11] were 0.00359 s⁻¹, 0.00589 s⁻¹ and 0.00302 s⁻¹, respectively. The values for the kon in [4], in experiment [10] and in [11] were 395000 M⁻¹ s⁻¹, 961000 M⁻¹ s⁻¹ and 681000 M⁻¹ s⁻¹, respectively. Moreover, in [6], the “half-maximal concentration of PD-1/PD-L1 blockade (% of inhibition, NFAT-luciferase reporter cells; IC50)” value is 33.4 nM. The IC50 (in general, the midpoint of a concentration-inhibition curve) in experiment [8] amounted to 0.84 nM.

The values are drawn from US20240409638A1 (AVACTA LIFE SCIENCES, published 2024).
